Article PMC8571072
Several values for one entry are separate records, joined by “and”; a condition that tells them apart may be missing. Identical values can stand only once.

Target: intelectin-2 (Xenopus laevis (endogenous in egg extract))
Experiment: cryo-EM structure

stoichiometry N: 3 and 6
Substance: intelectin-2 (natural protein)
